{"source": "paper PMC10531710", "about": "“Overexpression of the First Peanut-Susceptible Gene, AhS5H1 or AhS5H2, Enhanced Susceptibility to Pst DC3000 in Arabidopsis” (International Journal of Molecular Sciences, 2023)", "molecules": {"B1": {"name": "AhS5H1 (Arachis hypogaea) (protein)", "chain": "MANTKPLLLADQVTNMKHIPLNFIRPLNDRPNLQNLQSSNDNNESIPIIDLQGLDEDNDASNRSQIIHNIGQACQDYGFFQIVNHGVPEDVVGKMMKVGKAFFDLPESERMKNYSDDPSKTTRLSTSFNVKTEKVANWRDFLRLHCHPLEDYIQEWPTNPPSFREDVGEYSKHMRKLSLKLLEAISESLGLEKDYMEKALGKHGQHMAINYYPPCPEPDLTYGLPAHADPNAITILLQNHVPGLQVLKDGHWVTVKHVPNTFIVNIGDQIQVISNDKYKSVLHRALVNCEKERMSIPTFYCPSPEALVGPAPQLIDQHNDPPKYTNFTYAEYYHKFWNRGLSKETCVDLFKV", "notes": "full ORF 1059 bp, 353 residues as printed; modified pGEX (GST) vector with C-terminal 3xMyc; E. coli BL21(DE3); glutathione Sepharose purified; tag removal not mentioned"}}, "key": {"O=C(O)c1ccccc1O": {"system": "T1, O=C(O)c1ccccc1O", "T1 construct": "full ORF 1014 bp, 338 residues as printed; modified pGEX (GST) vector with C-terminal 3xMyc; E. coli BL21(DE3); glutathione Sepharose purified; tag removal not mentioned", "assay": "purified protein", "type": "biochemical, Arachis hypogaea", "conditions": "1 mM 2-oxoglutarate, 1 mM ascorbate, 0.4 mM FeSO4, 0.1 mg/mL catalase, 5 mM DTT, 50 mM phosphate pH 6.8, 40 °C, 30 min"}, "purified protein": {"substrate": "O=C(O)c1ccccc1O", "assay": "purified protein", "type": "biochemical, Arachis hypogaea", "conditions": "1 mM 2-oxoglutarate, 1 mM ascorbate, 0.4 mM FeSO4, 0.1 mg/mL catalase, 5 mM DTT, 50 mM phosphate pH 6.8, 40 °C, 30 min"}}, "data": [{"molecule": "AhS5H2 (Arachis hypogaea)", "values": [{"measurement": "Km", "setting": "O=C(O)c1ccccc1O", "result": "190.52 ± 26.33", "unit": "µM"}]}, {"molecule": "B1", "values": [{"measurement": "Km", "setting": "purified protein", "result": "44.72 ± 6.95", "unit": "µM"}]}]}
